In patent US20120178701A1 (PALATIN TECHNOLOGIES, published 2012) one finds Ki data, which are given here for 30 molecules.

Bridge positions count the residues as written; N and C are the ends. Square brackets hold non-standard residues; d marks the D form. * marks the point of attachment. Pro(4R-Bn) = O=C(O)[C@@H]1C[C@@H](Cc2ccccc2)CN1; Orn = NCCC[C@H](N)C(=O)O; Dab = NCC[C@H](N)C(=O)O; NHcPr = C1CC1N*

B1: Ac-Arg-cyclo(Asp-Ala-D-Phe-Lys-Trp-Lys)-NH2 (peptide)
peptide: RDAFKWK
HELM: PEPTIDE1{[ac].R.D.A.[dF].K.W.K.[am]}$PEPTIDE1,PEPTIDE1,3:R3-8:R3$$$V2.0
SMILES: CC(=O)N[C@@H](CCCNC(=N)N)C(=O)N[C@H]1CC(=O)NCCCC[C@@H](C(N)=O)NC(=O)[C@H](Cc2c[nH]c3ccccc23)NC(=O)[C@H](CCCCN)NC(=O)[C@@H](Cc2ccccc2)NC(=O)[C@H](C)NC1=O
notes: also called peptide No. 8
B2: Ac-Arg-cyclo(Asp-Met-D-Phe-Arg-Trp-Lys)-NH2 (peptide)
peptide: RDMFRWK
HELM: PEPTIDE1{[ac].R.D.M.[dF].R.W.K.[am]}$PEPTIDE1,PEPTIDE1,3:R3-8:R3$$$V2.0
SMILES: CSCC[C@@H]1NC(=O)[C@@H](NC(=O)[C@H](CCCNC(=N)N)NC(C)=O)CC(=O)NCCCC[C@@H](C(N)=O)NC(=O)[C@H](Cc2c[nH]c3ccccc23)NC(=O)[C@H](CCCNC(=N)N)NC(=O)[C@@H](Cc2ccccc2)NC1=O
notes: also called peptide No. 38
B3: Ac-Arg-cyclo(Asp-Asn-D-Phe-Arg-Trp-Lys)-NH2 (peptide)
peptide: RDNFRWK
HELM: PEPTIDE1{[ac].R.D.N.[dF].R.W.K.[am]}$PEPTIDE1,PEPTIDE1,3:R3-8:R3$$$V2.0
SMILES: CC(=O)N[C@@H](CCCNC(=N)N)C(=O)N[C@H]1CC(=O)NCCCC[C@@H](C(N)=O)NC(=O)[C@H](Cc2c[nH]c3ccccc23)NC(=O)[C@H](CCCNC(=N)N)NC(=O)[C@@H](Cc2ccccc2)NC(=O)[C@H](CC(N)=O)NC1=O
notes: also called peptide No. 29
B4: Ac-Arg-cyclo(Asp-His-D-Phe-Lys-Trp-Lys)-NH2 (peptide)
peptide: RDHFKWK
HELM: PEPTIDE1{[ac].R.D.H.[dF].K.W.K.[am]}$PEPTIDE1,PEPTIDE1,3:R3-8:R3$$$V2.0
SMILES: CC(=O)N[C@@H](CCCNC(=N)N)C(=O)N[C@H]1CC(=O)NCCCC[C@@H](C(N)=O)NC(=O)[C@H](Cc2c[nH]c3ccccc23)NC(=O)[C@H](CCCCN)NC(=O)[C@@H](Cc2ccccc2)NC(=O)[C@H](Cc2c[nH]cn2)NC1=O
notes: also called peptide No. 6
B5: Ac-Arg-cyclo(Asp-Gln-D-Phe-Arg-Trp-Lys)-NH2 (peptide)
peptide: Ac-RDQ[dF]RWK-NH2
modifications: lactam 2-7
notes: any difference is only in the drawings; also called peptide No. 78
B6: Ac-Arg-cyclo(Asp-Lys-D-Phe-Lys-Trp-Lys)-NH2 (peptide)
peptide: RDKFKWK
HELM: PEPTIDE1{[ac].R.D.K.[dF].K.W.K.[am]}$PEPTIDE1,PEPTIDE1,3:R3-8:R3$$$V2.0
SMILES: CC(=O)N[C@@H](CCCNC(=N)N)C(=O)N[C@H]1CC(=O)NCCCC[C@@H](C(N)=O)NC(=O)[C@H](Cc2c[nH]c3ccccc23)NC(=O)[C@H](CCCCN)NC(=O)[C@@H](Cc2ccccc2)NC(=O)[C@H](CCCCN)NC1=O
notes: also called peptide No. 7
B7: Ac-Arg-cyclo(Asp-Leu-D-Phe-Arg-Trp-Lys)-NH2 (peptide)
peptide: RDLFRWK
HELM: PEPTIDE1{[ac].R.D.L.[dF].R.W.K.[am]}$PEPTIDE1,PEPTIDE1,3:R3-8:R3$$$V2.0
SMILES: CC(=O)N[C@@H](CCCNC(=N)N)C(=O)N[C@H]1CC(=O)NCCCC[C@@H](C(N)=O)NC(=O)[C@H](Cc2c[nH]c3ccccc23)NC(=O)[C@H](CCCNC(=N)N)NC(=O)[C@@H](Cc2ccccc2)NC(=O)[C@H](CC(C)C)NC1=O
notes: also called peptide No. 12
B8: Ac-Lys-cyclo(Asp-His-D-Phe-Arg-Trp-Lys)-NH2 (peptide)
peptide: KDHFRWK
HELM: PEPTIDE1{[ac].K.D.H.[dF].R.W.K.[am]}$PEPTIDE1,PEPTIDE1,3:R3-8:R3$$$V2.0
SMILES: CC(=O)N[C@@H](CCCCN)C(=O)N[C@H]1CC(=O)NCCCC[C@@H](C(N)=O)NC(=O)[C@H](Cc2c[nH]c3ccccc23)NC(=O)[C@H](CCCNC(=N)N)NC(=O)[C@@H](Cc2ccccc2)NC(=O)[C@H](Cc2c[nH]cn2)NC1=O
notes: also called peptide No. 135
B9: Ac-Arg-cyclo(Asp-His-D-(alpha-Me)Phe-Arg-Trp-Lys)-NH2 (peptide)
peptide: RDHFRWK
HELM: PEPTIDE1{[ac].R.D.H.[C[C@](Cc1ccccc1)(N[*:1])C(=O)[*:2]].R.W.K.[am]}$PEPTIDE1,PEPTIDE1,3:R3-8:R3$$$V2.0
SMILES: CC(=O)N[C@@H](CCCNC(=N)N)C(=O)N[C@H]1CC(=O)NCCCC[C@@H](C(N)=O)NC(=O)[C@H](Cc2c[nH]c3ccccc23)NC(=O)[C@H](CCCNC(=N)N)NC(=O)[C@@](C)(Cc2ccccc2)NC(=O)[C@H](Cc2c[nH]cn2)NC1=O
notes: also called peptide No. 60
B10: Ac-Arg-cyclo(Asp-Tyr-D-Phe-Arg-Trp-Lys)-NH2 (peptide)
peptide: RDYFRWK
HELM: PEPTIDE1{[ac].R.D.Y.[dF].R.W.K.[am]}$PEPTIDE1,PEPTIDE1,3:R3-8:R3$$$V2.0
SMILES: CC(=O)N[C@@H](CCCNC(=N)N)C(=O)N[C@H]1CC(=O)NCCCC[C@@H](C(N)=O)NC(=O)[C@H](Cc2c[nH]c3ccccc23)NC(=O)[C@H](CCCNC(=N)N)NC(=O)[C@@H](Cc2ccccc2)NC(=O)[C@H](Cc2ccc(O)cc2)NC1=O
notes: also called peptide No. 11
B11: Ac-Arg-cyclo(Asp-Ile-D-Phe-Arg-Trp-Lys)-NH2 (peptide)
peptide: RDIFRWK
HELM: PEPTIDE1{[ac].R.D.I.[dF].R.W.K.[am]}$PEPTIDE1,PEPTIDE1,3:R3-8:R3$$$V2.0
SMILES: CC[C@H](C)[C@@H]1NC(=O)[C@@H](NC(=O)[C@H](CCCNC(=N)N)NC(C)=O)CC(=O)NCCCC[C@@H](C(N)=O)NC(=O)[C@H](Cc2c[nH]c3ccccc23)NC(=O)[C@H](CCCNC(=N)N)NC(=O)[C@@H](Cc2ccccc2)NC1=O
notes: also called peptide No. 34
B12: Ac-Arg-cyclo(Asp-Trp-D-Phe-Arg-Trp-Lys)-NH2 (peptide)
peptide: RDWFRWK
HELM: PEPTIDE1{[ac].R.D.W.[dF].R.W.K.[am]}$PEPTIDE1,PEPTIDE1,3:R3-8:R3$$$V2.0
SMILES: CC(=O)N[C@@H](CCCNC(=N)N)C(=O)N[C@H]1CC(=O)NCCCC[C@@H](C(N)=O)NC(=O)[C@H](Cc2c[nH]c3ccccc23)NC(=O)[C@H](CCCNC(=N)N)NC(=O)[C@@H](Cc2ccccc2)NC(=O)[C@H](Cc2c[nH]c3ccccc23)NC1=O
notes: also called peptide No. 36
B13: Ac-Arg-cyclo(Glu-Lys-D-Phe-Arg-Trp-Orn)-OH (peptide)
peptide: REKFRWX
HELM: PEPTIDE1{[ac].R.E.K.[dF].R.W.[Orn]}$PEPTIDE1,PEPTIDE1,3:R3-8:R3$$$V2.0
SMILES: CC(=O)N[C@@H](CCCNC(=N)N)C(=O)N[C@H]1CCC(=O)NCCC[C@@H](C(=O)O)NC(=O)[C@H](Cc2c[nH]c3ccccc23)NC(=O)[C@H](CCCNC(=N)N)NC(=O)[C@@H](Cc2ccccc2)NC(=O)[C@H](CCCCN)NC1=O
notes: also called peptide No. 89
B14: Ac-Arg-cyclo(Orn-Ala-D-Phe-Arg-Trp-Glu)-NH2 (peptide)
peptide: RXAFRWE
HELM: PEPTIDE1{[ac].R.[Orn].A.[dF].R.W.E.[am]}$PEPTIDE1,PEPTIDE1,3:R3-8:R3$$$V2.0
SMILES: CC(=O)N[C@@H](CCCNC(=N)N)C(=O)N[C@H]1CCCNC(=O)CC[C@@H](C(N)=O)NC(=O)[C@H](Cc2c[nH]c3ccccc23)NC(=O)[C@H](CCCNC(=N)N)NC(=O)[C@@H](Cc2ccccc2)NC(=O)[C@H](C)NC1=O
notes: also called peptide No. 120

The target of the assay is T1, human recombinant melanocortin-4 receptor (human, UniProt P32245 1-332).
T1 construct: whole, on cells; cAMP assays used the whole cells; also called hMC4-R; MC4-R
T1 sequence (P32245 whole entry): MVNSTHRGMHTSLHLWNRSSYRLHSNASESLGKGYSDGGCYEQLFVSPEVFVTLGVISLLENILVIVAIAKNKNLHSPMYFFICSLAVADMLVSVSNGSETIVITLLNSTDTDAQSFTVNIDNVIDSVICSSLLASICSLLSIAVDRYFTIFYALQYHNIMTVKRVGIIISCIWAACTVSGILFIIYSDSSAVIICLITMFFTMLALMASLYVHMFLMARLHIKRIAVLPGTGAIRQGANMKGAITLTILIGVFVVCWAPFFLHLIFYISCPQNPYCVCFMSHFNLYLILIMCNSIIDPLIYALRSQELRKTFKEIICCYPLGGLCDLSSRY
In words: competitive inhibition of Eu-NDP-α-MSH (TRF), hMC4-R HEK-293 membranes. On the procedure:
After incubation for 90 minutes at 37° C., the reaction was stopped by filtration over AcroWell 96-well filter plates (Pall Life Sciences). The filter plates were washed 4 times with 200 μL of ice-cold phosphate-buffered saline. DELFIA Enhancement solution (PerkinElmer Life Sciences) was added to each well. The plates were incubated on a shaker for 15 minutes and read at 340 nm excitation and 615 nm emission wavelengths. Each assay was conducted in duplicate and mean values were utilized. Ki values were determined by curve-fitting with Graph-Pad Prism® software using a one-site fixed-slope competition binding model.
9.1 Peptides of the following structures were synthesized by the general methods described above, and averaged MC4-R Ki values for peptides were determined as indicated. […] Ki values marked “ND” were not determined.
For Ac-RD[Pro(4R-Bn)][dF]RWK-NH2 (lactam 2-7, also called peptide No. 18) [Ac-Arg-cyclo(Asp-Pro(4R-Bzl)-D-Phe-Arg-Trp-Lys)-NH2], the inhibition constant Ki – broadly, a dissociation constant, usually derived from enzyme kinetics or from competition with a known ligand – is 3 nM.
Under Ac-RKH[dF]RWD-NH2 (lactam 2-7, also called peptide No. 96) [Ac-Arg-cyclo(Lys-His-D-Phe-Arg-Trp-Asp)-NH2] stands 1 nM.
For the molecule Ac-R[Orn]H[dF]RWE-OH (lactam 2-7, also called peptide No. 84) [Ac-Arg-cyclo(Orn-His-D-Phe-Arg-Trp-Glu)-OH], the Ki stood at 12 nM.
Under Ac-RE[Orn][dF]RW[Orn]-NH2 (lactam 2-7, also called peptide No. 104) [Ac-Arg-cyclo(Glu-Orn-D-Phe-Arg-Trp-Orn)-NH2] stands 9 nM.
Then B1, with 3020 nM; and B2, with 35 nM; and B3, with 32 nM.
Then B4, with 533 nM; and B5, with 86 nM; and Ac-[dR]DA[dF]RWK-NH2 (lactam 2-7, also called peptide No. 70) [Ac-D-Arg-cyclo(Asp-Ala-D-Phe-Arg-Trp-Lys)-NH2], with 46 nM.
Turning to B6, the inhibition constant Ki amounted to 2960 nM.
Then B7, with 33 nM.
Under B8 stands 9 nM; under B9, 47 nM; under B10, 43 nM.
As to Ac-RDQ[dF]RWK-NHcPr (lactam 2-7) [Ac-Arg-cyclo(Asp-Gln-D-Phe-Arg-Trp-Lys)-NH-cyclopropyl], the Ki came out at 64 nM.
For the molecule B11, the Ki stood at 19 nM.
Under B12 stands 37 nM; under Ac-RDT[dF]RWK-NH2 (lactam 2-7, also called peptide No. 35) [Ac-Arg-cyclo(Asp-Thr-D-Phe-Arg-Trp-Lys)-NH2], 140 nM; under Ac-REH[dF]RW[Orn]-NHEt (lactam 2-7, also called peptide No. 109) [Ac-Arg-cyclo(Glu-His-D-Phe-Arg-Trp-Orn)-NH-Et], 6 nM.
Then Ac-[dR]EH[dF]RW[Orn]-OH (lactam 2-7, also called peptide No. 85) [Ac-D-Arg-cyclo(Glu-His-D-Phe-Arg-Trp-Orn)-OH], with 40 nM; and Ac-REH[dF]RW[Orn]-NH2 (lactam 2-7, also called peptide No. 64) [Ac-Arg-cyclo(Glu-His-D-Phe-Arg-Trp-Orn)-NH2], with 1 nM; and B13, with 113 nM.
Under Ac-R[Orn][Dab][dF]RWE-NH2 (lactam 2-7, also called peptide No. 119) [Ac-Arg-cyclo(Orn-Dab-D-Phe-Arg-Trp-Glu)-NH2] stands 3 nM; under B14, 19 nM.
As to Ac-[dK][Orn]H[dF]RWE-NH2 (lactam 2-7) [Ac-D-Lys-cyclo(Orn-His-D-Phe-Arg-Trp-Glu)-NH2], the Ki is 8 nM.
Then Ac-K[Orn]H[dF]RWE-NH2 (lactam 2-7, also called peptide No. 132) [Ac-Lys-cyclo(Orn-His-D-Phe-Arg-Trp-Glu)-NH2], with 3 nM; and Ac-REH[dF]RW[Orn]-NHcPr (lactam 2-7, also called peptide No. 110) [Ac-Arg-cyclo(Glu-His-D-Phe-Arg-Trp-Orn)-NH-cyclopropyl], with 1 nM.
Turning to Ac-[dR][Orn]H[dF]RWE-NH2 (lactam 2-7, also called peptide No. 98) [Ac-D-Arg-cyclo(Orn-His-D-Phe-Arg-Trp-Glu)-NH2], the Ki came to 4 nM.
Then Ac-[dR]D[Pro(4R-Bn)][dF]RWK-NH2 (lactam 2-7, also called peptide No. 72) [Ac-D-Arg-cyclo(Asp-Pro(4R-Bzl)-D-Phe-Arg-Trp-Lys)-NH2], with 2 nM.
